Values quoted from earlier work in paper PMC4191058.

Target: NS1 (Influenza A virus) (UniProt Q8QPI8)

For NS1 (from UniProt Q8QPI8), which Kd is on record?
The Kd was 90 µM.
